This note sets out measurements from article PMC2596486 (PLoS ONE, 2008).

Experiment [1] deals with T1, rHA subtype H7 (A/Netherlands/219/03) (Influenza A virus …, UniProt Q6VMK1).
T1 construct: source: bought: Protein Sciences Corp. (baculovirus vectors in insect cells)
Description: ELISA. Conditions: both partners purified. On the technique in general: ELISA stands for enzyme-linked immunosorbent assay.

Experiment [2] concerns the target T2, rHA subtype H1 (A/New Caledonia/20/99) (Influenza A virus A/New …, UniProt Q6WG00, strain).
T2 construct: source: bought: Protein Sciences Corp. (baculovirus vectors in insect cells)
Description: ELISA. Conditions: both partners purified.

B1: CR6323 human IgG1 (antibody, V domains shown)
VH: EVQLVESGAEVKKPGSSVKVSCKASGGTFSSYGISWVRQAPGQGLEWMGDIIGMFGSTNYAQNFQGRLTITADESTSTAYMELSSLRSEDTAVYYCARSSGYYPAYLPHWGQGTLVTVSS
VL: not shown
For B1, the binding result is “no binding (tested: 5 µg/ml IgG1)” in experiment [1] and “binds” in experiment [2].
